According to patent CN112794900A (2ND XIANGYA HOSPITAL CENTRAL SOUTH UNIV, dated 2021):

How the values were obtained:
[1] = biological target: T1, cBIN1 Isoform II2 (cBIN1 exon1-13&18-20) (UniProt O00499-6 1-482); experiment: ELISA, antigen coated at 0.1μg/well, OD450
T1 construct: domain: cBIN1 exon1-13&18-20; tags are unknown; also called 含有exon13的cBIN1 Isoform II2蛋白
T1 sequence (looked up): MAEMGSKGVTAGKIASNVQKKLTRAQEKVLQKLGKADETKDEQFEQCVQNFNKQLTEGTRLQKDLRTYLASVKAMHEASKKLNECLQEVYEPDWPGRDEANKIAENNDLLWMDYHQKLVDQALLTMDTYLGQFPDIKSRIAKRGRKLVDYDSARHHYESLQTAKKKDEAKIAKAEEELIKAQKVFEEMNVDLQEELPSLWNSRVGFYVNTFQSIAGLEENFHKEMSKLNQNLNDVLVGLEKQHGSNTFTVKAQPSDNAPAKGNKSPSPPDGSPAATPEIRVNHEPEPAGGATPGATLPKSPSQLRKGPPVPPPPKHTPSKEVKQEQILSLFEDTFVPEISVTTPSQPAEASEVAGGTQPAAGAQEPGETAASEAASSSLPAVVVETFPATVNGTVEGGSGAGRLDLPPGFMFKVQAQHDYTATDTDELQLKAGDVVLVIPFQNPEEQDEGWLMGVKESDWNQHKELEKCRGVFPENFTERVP

[2] = biological target: T2, cBIN1 Isoform II3 (cBIN1 exon 1-12&18-20) (UniProt O00499-7 1-439); experiment: ELISA, antigen coated at 0.1μg/well
T2 construct: domain: cBIN1 exon 1-12&18-20; Tags are unknown; also called 缺失exon13的cBIN1 Isoform II3蛋白
T2 sequence (looked up): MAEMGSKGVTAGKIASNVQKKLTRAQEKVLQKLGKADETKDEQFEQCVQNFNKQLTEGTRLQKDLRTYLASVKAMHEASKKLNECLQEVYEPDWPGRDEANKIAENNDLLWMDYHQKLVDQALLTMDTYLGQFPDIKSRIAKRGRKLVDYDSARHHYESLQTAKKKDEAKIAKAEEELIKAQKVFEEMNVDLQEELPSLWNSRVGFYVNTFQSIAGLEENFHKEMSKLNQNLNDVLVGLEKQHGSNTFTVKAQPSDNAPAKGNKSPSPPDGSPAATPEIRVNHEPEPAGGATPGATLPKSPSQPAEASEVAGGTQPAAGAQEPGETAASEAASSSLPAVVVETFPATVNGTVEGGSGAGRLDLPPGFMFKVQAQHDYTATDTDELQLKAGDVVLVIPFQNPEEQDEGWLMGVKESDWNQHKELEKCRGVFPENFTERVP

B1: 鼠源抗体 8G1-D7-F5 (抗人源cBIN1 exon13抗体) (antibody, V domains shown)
VH: EVQLQQSGAELVRPGASVKLSCTTSGFNIKDSYMHWVKQRPEQGLEWIGRIDPEDDDAVYAPKFQDRATMTADTSSNTAYLHLSSLTSDDTAVYYCTTSTLVATPWFFDVWGTGTTVTVSS
VL: DIQMTQTTSSLSASLGDRVTISCSASQDINNYLNWYQQKPDGTVKLLIYYTSTLHSGVPSRFSGSGSGTDYSLTITNLEPEDFATYYCQQYTHNLPWTFGGGTKLEIK
notes: Mouse hybridoma antibody; The printed light chain FR3 may lack a leading G; also called cBIN1抗体
With B1 the EC50 [1] was 0.058 µg/mL and the binding result [2] was “no binding (tested: 10μg/ml起始浓度, 三倍稀释, 11个检测点)”.
